According to paper PMC4468133:

Biological target: HIV-1 integrase (HIV-1)

Substance: lens-epithelium derived growth factor (LEDGF/p75) (from UniProt O75475 1-530) (natural protein)
- LEDGF/p75-dependent activation of in vitro integration into PN (polynucleosome) templates, IN-LEDGF/p75 preformed complex against IN alone (radiolabelled donor, average of four templates): 5 fold
